From patent publication US20250281533A1 (LG CHEM, published 2025)

Key:
[1] = biological target: T1, Human MUC1 protein (human, UniProt P15941 1041-1153, limits assumed); assay: SPR, Biacore T200; scFv-Fc on anti-human IgG (Fc) CM5 chip, human MUC1 protein injected at 25-400 nM
T1 construct: also called mucin1 antigen; human mucin1
T1 sequence: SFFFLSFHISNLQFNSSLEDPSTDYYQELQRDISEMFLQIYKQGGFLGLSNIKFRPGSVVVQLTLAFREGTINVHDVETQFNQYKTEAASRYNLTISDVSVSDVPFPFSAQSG
Description: Affinity of scFv-Fc antibody including the scFv for mucin1 antigen was measured using Biacore T200 (GE healthcare). Anti-human IgG (Fc) antibody (GE healthcare, Cat. No. BR-1008-39, final concentration of 25 ug/mL) was applied at a rate of 5 uL/min for 360 seconds on a Series S Sensor Chip CM5 (GE healthcare, Cat. No. BR-1005-30) using an Amine Coupling Kit (GE healthcare, Cat. No. BR-1000-50) and immobilized at about 5000-7000 RU.

[2] = biological target: T2, C subunit of human MUC1 expressed in HEK293T cells (HEK293T-v1) (human, UniProt P15941 1098-1255, limits assumed); assay: flow cytometry (PE MFI, corrected to G03 at 380 ug/mL) on HEK293T-v1 cells expressing MUC1 C subunit
T2 construct: domain: C subunit of MUC1; also called MUC1-C
T2 sequence (looked up): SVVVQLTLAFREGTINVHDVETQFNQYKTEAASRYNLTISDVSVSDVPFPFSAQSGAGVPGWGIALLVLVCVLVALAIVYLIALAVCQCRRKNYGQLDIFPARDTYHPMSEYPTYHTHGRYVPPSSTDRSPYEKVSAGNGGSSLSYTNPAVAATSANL
Description: The soluble scFv prepared in Example 1 was diluted 5-fold to prepare a total of 8 serial dilutions. Each serial dilution was 380 μg/mL, 76 μg/mL, 15.2 μg/mL, 3.04 μg/mL, 0.608 μg/mL, 0.1216 μg/mL, 0.02432 μg/mL, 0.004864 μg/mL. A buffer used in soluble scFv dilution and cell washing was PBS containing 2% FBS and 10 mM EDTA. Four kinds of cells were prepared at a density of 1×10⁶/mL, respectively, and put in a 96 well U-bottom cell culture plate at a density of 1×10⁵/100 μl/well, followed by centrifugation at 1500 RPM for 5 minutes. The soluble scFv prepared previously was treated in an amount of 50 μl/well. The cells were left at 4° C. for 1 hour. 150 μl/well of the cell washing buffer was added thereto and then mixed, followed by centrifugation at 1500 RPM for 5 minutes. The supernatant was discarded, and 200 μl/well of the cell washing buffer was added thereto and then mixed, followed by centrifugation at 1500 RPM for 5 minutes. A goat anti-human IgG Fc-biotin antibody (Invitrogen, A18821) was diluted 500-fold, and 50 μl/well thereof was treated. The cells were left at 4° C. for 20 minutes. 150 μl/well of the cell washing buffer was added thereto and then mixed, followed by centrifugation at 1500 RPM for 5 minutes. The supernatant was discarded, and 200 μl/well of the cell washing buffer was added thereto and then mixed, followed by centrifugation at 1500 RPM for 5 minutes. PE-Streptavidin (BD Pharmigen, 554061) was diluted 1000-fold, and 50 μl/well thereof was treated. The cells were left at 4° C. for 20 minutes. 150 μl/well of the cell washing buffer was added thereto and then mixed, followed by centrifugation at 1500 RPM for 5 minutes. The supernatant was discarded, and 200 μl/well of the cell washing buffer was added thereto and then mixed, followed by centrifugation at 1500 RPM for 5 minutes. 80 μl/well of the cell washing buffer was added and mixed, followed by flow cytometry.
The affinity of the soluble scFv to the mucin1-expressing cells was confirmed by PE MFI values from the results of the flow cytometry. Each cell line without soluble scFv was stained with another fluorescent antibody (Goat anti-human IgG Fc-biotin antibody, PE-Streptavidin), which was used as a negative control value, and each cell line was treated with G03 at a concentration of 380 μg/mL, which was used as a positive control value, and MFI value was corrected as follows: […]

B1: scFv-Fc antibody including the scFv 2447_2H08 (Fc fusion)
scFv: EVQLVQSGAEVKKPGASVKVSCKASGYTFTNYGISWVRQAPGQGLEWMGWISAYNGNTNYAQKLQGRVTMTTDTSTSTAYMELRSLRSDDTAVYYCARDPHILTGYYRGGWFDPWGQGTTVTVSSGGGGSGGGGSGGGASSYELTQDPAVSVALGQTVTITCQGDSLRTSYAGWLQQKPGQAPVLVLYGKTSRPSGIPDRFSGSTSGNTASLTITGAQAEDEAEYFCHSRDSNDNYLEVVFGGGTKLTVL
notes: scFv-Fc format as used in the Biacore assay; not shown: Fc part (with any hinge or linker) of the scFv-Fc
Q: Which Kd [1] does the source give for B1 here?
A: 94.8 nM

B2: scFv-Fc antibody including the scFv 2447_3A01 (Fc fusion)
scFv: EVQLLESGGGLVQPGGSLRLSCAASGFTFDDYAMHWVRQAPGKGLEWVSGISWNSGSIVYADFVKGRFTISRDNAKNSLYLQMNSLRAEDTALYYCAKDISSGWYPGTFDYWGQGTLVTVSSGGGGSGGGGSGGGASSYELTQDPAVSVALGQTVRITCQGDSLRSYYASWYQQKPGQAPVLVIYGKNNRPSGIPDRFSGSSSGNTASLTVTGAQAEDEADYYCSSRDSSDDVVFGGGTQLTVL
notes: as for B1
Q: Which Kd [1] does the source give for B2 here?
A: 51.5 nM

B3: scFv-Fc antibody including the scFv 2447_3A08 (Fc fusion)
scFv: EVQLVQSGAEVKKPGASVKVSCKASGYTFTSYGISWVRQAPGQGLEWMGWISAYNGNTNYAQKLQGRVTMTTDTSTSTAYMELRSLRSDDTAVYYCARDRATIFGVVTPFDYWGQGTLVTVSSGGGGSGGGGSGGGASSYELTQDPAVSVALGQTVRITCQGDSIRSYSASWYQQKPGQAPRLVIYGKNNRPSGIPDRVSGSTSGNTASLTVTGAQAEDEADYYCNSRDSSGNRVVFGGGTQLTVL
notes: as for B1
Q: With B3 as the binder, how does the Kd [1] read?
A: 320 nM

B4: scFv-Fc antibody including the scFv 2447_3A09 (Fc fusion)
scFv: EVQLLESGGGLVQPGRSLRLSCAATGFTFDDYAMHWVRQAPGKGLEWVSGISWNSGSIGYADSVKGRFTISRDNAKNSLYLQMNSLRAEDTASYYCAKDVSSGWYWYAFDIWGQGTLVTVSSGGGGSGGGGSGGGASSYELTQDPAVSVALGQTVRITCQGDSLRSYYASWYQQKPGQAPVLVIYGKNNRPSGIPGRFSGSSSGNTASLTVTGAQAEDEADYYCNSRDSGGSVVFGGGTKLTVL
notes: as for B1
Q: Which Kd [1] does the source give for B4 here?
A: 62.1 nM

B5: scFv-Fc antibody including the scFv 2447_3A12 (Fc fusion)
scFv: EVQLVQSGAEVKKPGASVKVSCKASGYTFTSYGISWVRQAPGQGLEWMGWISAYNGNTNYAQKLRGRVTMTTDTSTSTAYMELRSLRSDDTAVYYCARDPHILTGYYRGGWFDPWGQGTLVTVSSGGGGSGGGGSGGGASSYELTQDPAVSVVLGQTVRITCQGDSLRSYYASWYQQKPGQAPVLVIYGKNNRPSGIPDRFSGSSSGNTASLTITGAQAEDEADYYCNSRDSSGNHRVFGGGTKLTVL
notes: as for B1
Q: B5 was tested. Which Kd [1] did it give?
A: 13.8 nM

B6: scFv-Fc antibody including the scFv 2447_3B07 (Fc fusion)
scFv: QVQLVESGGVVVQPGGSLRLSCAASGFTFDDYAMHWVRQAPGRGLEWVSLTSWDGGSTYYADSVKGRFTISRDNSKNSLYLQMNSLRAEDTALYYCAKDHSSGWYNGGMDVWGQGTMVTVSSGGGGSGGGGSGGGASSYELTQDPAVSVALGQTVRITCQGDSLRSYYASWYQQKPGQAPVLVIYGKNNRPSGIPDRFSGSSSGNTASLTITGAQAEDEADYYCNSRDSSGNHVVFGGGTKLTVL
notes: as for B1
Q: For B6, which Kd [1] is on record?
A: 51.7 nM

B7: scFv-Fc antibody including the scFv 2447_3C08 (Fc fusion)
scFv: EVQLLESGGGLVQPGGSLRLSCAASGFTFDDYAMHWVRQAPGKGLEWVSGISWNSGSIGYADSVKGRFTISRDNAKNSLYLQMNSLRAEDTALYYCAKDRGSGYEGNYYGMDVWGQGTLVTVSSGGGGSGGGGSGGGASSYELTQDPAVSVALGQTVRITCQGDSLRSYYASWYQQKPGQAPVLVIYGKNNRPSGIPDRFSGTTSGNTASLTITGAQAEDEADYYCNSRDSSGNHYVFGTGTKVTVL
notes: as for B1
Q: For B7, which Kd [1] is on record?
A: 24 nM

B8: scFv-Fc antibody including the scFv 2447_3H02 (Fc fusion)
scFv: EVQLLESGGGLVQPGRSLRLSCAASGFTFDDYAMHWVRQAPGKGLEWVSGISWDSGSIGYADSVKGRFTISRDNAKNSLYLQMNSLRAEDTALYYCAKDVSSGWYWYAFDIWGQGTLVTVSSGGGGSGGGGSGGGASSYELTQDPAVSVALGQTVRITCQGDILRSYYASWYQQKPGQAPVLVIYGKNNRPSGIPDRFSGSSSGNTASLTITGAQAEDEADYYCNSRDSSGNRVVFGGGTKLTVL
notes: scFv-Fc format as used in the Biacore assay; not shown: Fc part (and any hinge or linker) of the scFv-Fc
Q: Which Kd [1] does the source give for B8 here?
A: 58.8 nM

B9: scFv-Fc antibody including the scFv 2447_3H08 (Fc fusion)
scFv: EVQLLESGGGLVQPGRSLRLSCAASGFTFDDYAMHWVRQAPGKGLEWVSGISWNSGSIDYADSVKGRFTISRDNSKNTLYLQMNSLRAEDTAVYYCARDRSSGWYTGSFDYWGQGTLVTVSSGGGGSGGGGSGGGASSYELTQDPAVSVALGQTVRITCQGDSLRSYYASWYRQKPGQAPVLVIYGKNNRPSGIPDRFSGSSSGNTASLTIIGAQAEDEADYYCQSRDSSDNRVLFGGGTKVTVL
notes: as for B8
Q: For B9, which Kd [1] is on record?
A: 39.9 nM

B10: scFv-Fc antibody including the positive control scFv G03 (Fc fusion)
scFv: EVQLVQSGAEVKKPGATVKISCKVSGYTFTSYWMHWVQQAPGKGLEWIGYINPGTGYIEYNQKFKDRVTITADKSTDTAYMELSSLRSEDTAVYYCASSTAPFDYWGQGTLVTVSSGGGGSGGGGSGGGASEIVLTQSPGTLSLSPGERATLSCKASQDIKSYLSWYQQKPGQAPRLLIYYATRLADGIPDRFSGSGSGTDFTLTISRLEPEDFAVYYCLQYDESPYTFGQGTKLEIK
notes: not shown: Fc part (with any hinge or linker) of the scFv-Fc
Q: B10 was tested. Which Kd [1] did it give?
A: 27.6 nM

B11: positive control scFv G03 (scFv)
scFv: EVQLVQSGAEVKKPGATVKISCKVSGYTFTSYWMHWVQQAPGKGLEWIGYINPGTGYIEYNQKFKDRVTITADKSTDTAYMELSSLRSEDTAVYYCASSTAPFDYWGQGTLVTVSSGGGGSGGGGSGGGASEIVLTQSPGTLSLSPGERATLSCKASQDIKSYLSWYQQKPGQAPRLLIYYATRLADGIPDRFSGSGSGTDFTLTISRLEPEDFAVYYCLQYDESPYTFGQGTKLEIK
Q: For B11, which EC50 [2] is on record?
A: 3.46 µg/mL

B12: scFv 2447_3A01 (scFv)
scFv: EVQLLESGGGLVQPGGSLRLSCAASGFTFDDYAMHWVRQAPGKGLEWVSGISWNSGSIVYADFVKGRFTISRDNAKNSLYLQMNSLRAEDTALYYCAKDISSGWYPGTFDYWGQGTLVTVSSGGGGSGGGGSGGGASSYELTQDPAVSVALGQTVRITCQGDSLRSYYASWYQQKPGQAPVLVIYGKNNRPSGIPDRFSGSSSGNTASLTVTGAQAEDEADYYCSSRDSSDDVVFGGGTQLTVL
Q: With B12 as the binder, how does the EC50 [2] read?
A: 4.78 µg/mL

B13: scFv 2447_3A08 (scFv)
scFv: EVQLVQSGAEVKKPGASVKVSCKASGYTFTSYGISWVRQAPGQGLEWMGWISAYNGNTNYAQKLQGRVTMTTDTSTSTAYMELRSLRSDDTAVYYCARDRATIFGVVTPFDYWGQGTLVTVSSGGGGSGGGGSGGGASSYELTQDPAVSVALGQTVRITCQGDSIRSYSASWYQQKPGQAPRLVIYGKNNRPSGIPDRVSGSTSGNTASLTVTGAQAEDEADYYCNSRDSSGNRVVFGGGTQLTVL
Q: B13 was tested. Which EC50 [2] did it give?
A: 1.73 µg/mL

B14: scFv 2447_3A09 (scFv)
scFv: EVQLLESGGGLVQPGRSLRLSCAATGFTFDDYAMHWVRQAPGKGLEWVSGISWNSGSIGYADSVKGRFTISRDNAKNSLYLQMNSLRAEDTASYYCAKDVSSGWYWYAFDIWGQGTLVTVSSGGGGSGGGGSGGGASSYELTQDPAVSVALGQTVRITCQGDSLRSYYASWYQQKPGQAPVLVIYGKNNRPSGIPGRFSGSSSGNTASLTVTGAQAEDEADYYCNSRDSGGSVVFGGGTKLTVL
notes: also called #5
Q: With B14 as the binder, how does the EC50 [2] read?
A: 1.96 µg/mL

B15: scFv 2447_3A12 (scFv)
scFv: EVQLVQSGAEVKKPGASVKVSCKASGYTFTSYGISWVRQAPGQGLEWMGWISAYNGNTNYAQKLRGRVTMTTDTSTSTAYMELRSLRSDDTAVYYCARDPHILTGYYRGGWFDPWGQGTLVTVSSGGGGSGGGGSGGGASSYELTQDPAVSVVLGQTVRITCQGDSLRSYYASWYQQKPGQAPVLVIYGKNNRPSGIPDRFSGSSSGNTASLTITGAQAEDEADYYCNSRDSSGNHRVFGGGTKLTVL
notes: also called #6
Q: B15 was tested. Which EC50 [2] did it give?
A: 1.47 µg/mL
